experiment: yeast display, Sf9 membrane polyspecificity reagent, FACS + sequencing; frameworks hold sequencing errors
Outline: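 Polyreactivity labels are assigned by the sorting gate from which each nanobody was recovered. The gates were low and high (top ~1%), set on anti-HA fluorescence for expression and streptavidin fluorescence for reagent binding. Before sorting, galactose-induced (36–48 hours) yeast display cells were stained for 1 hour at 4 °C with 10% biotinylated, detergent-solubilized Sf9 membrane reagent.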

Sequence	polyreactivity (PSR sort gate)
QVQLVESGGGLVQAGGSLRLSCAASGRIFGKNAMGWYRQAPGKERELVAAIRGNGGSTYYADSVKGRFTISRDNAKNTVYLQFNSLKPEDTAVYYCAARASAYFGRYYLYDYWGQGTQVTVSS	high polyreactivity
QVQLVESGGGLVQAGGSLRLSCAASGRIFGKYAMGWYRQAPGKERELVAAIRITGGSTYYADSVKGRFTISRDNAKNTVYLEMNSLKPEDTAVYYCAAVYLKTYYWGQGTQVTVSS	high polyreactivity
QVQLVESGGGLVQAGGSLRLSCAASGRIFGLYAMGWYRQAPGKERELVAAITRGGRTNYADSVKGRFTISRDNAKNTVYLQMNSLKPEDTAVYYCAADYRYTRGRRDYWGQGTQVTVSS	high polyreactivity
QVQLVESGGGLVQAGGSLRLSCAASGRIFGLYAMGWYRQATGKERELVAAISSSGGRTYYADSVKGRFTISRDNAKNTVYLQMNSLKPEDTAVYYCAAVYYYRRDGNGYWGQGTQVTVSS	high polyreactivity
QVQLVESGGGLVQAGGSLRLSCAASGRIFGLYAMGWYSQAPGKERELVAAISRGGGSTYYSDSVMGRFTISRDNAKNTVYLQMKSLKPEVTAVYYCATGLGYFSRLDYWGQGTQVTVSS	low polyreactivity
QVQLVESGGGLVQAGGSLRLSCAASGRIFGLYTMGWYRQAPGKERELVAAITSRGGRTYYADSVKGRFTLSRDNAKNSVYLQMNSLKPEDTAVYYCAAGGYWSLKYDYWGQGTQVTVSS	high polyreactivity
QVQLVESGGGLVQAGGSLRLSCAASGRIFGNNVMGWYRQAPGKERELVASINYSGRTYYADSVKGRFTISRDNAKNTVYLQMNSLKPEDTAVYYCAARRYAWFYPYVTYDYWGQGTQVNVSS	high polyreactivity
QVQLVESGGGLVQAGGSLRLSCAASGRIFGNNVMGWYRQEPGKERELVAAITFSGTSTYYADSVKGRFTISRDNAKNTVYLQMNSLKPEDTAVYYCAKYRYADYYSPGYDYWGQGTQVTVSS	low polyreactivity
QVQLVESGGGLVQAGGSLRLSCAASGRIFGNYAMGWYRQAPGKERELVAAISNGSGRTSYADSVKGRFTISRDNAKNTVYLQMNSLKPEDTAVYYCAVLRPKSRKHTVGFCYWGQGTQVTVSS	high polyreactivity
QVQLVESGGGLVQAGGSLRLSCAASGRIFGPYAMGWYRHAPGKERELVAAISSSGSTTYYADSVKGRFTISRDNAKNTVYLQMNSLKPEDTAVYYCAKPSSRDSPYDYWGQGTQVTVSS	low polyreactivity
QVQLVESGGGLVQAGGSLRLSCAASGRIFGPYAMGWYRPATGKERELVAAISSRGSSTYYADSVKGRFTISRDNAKNTVYLQMNSLKPEDTAVYYCAARDYLAYYWGPSLYTFDYWGQGTEVTVSS	high polyreactivity
QVQLVESGGGLVQAGGSLRLSCAASGRIFGPYAMGWYRQAPGKERELVAAISGRGSSTYYADSVKGRFTISRDNAKNTVYLQMNSLKPEDTAVYYCAKYPTYSYDYWGQGTQVTVSS	high polyreactivity
QVQLVESGGGLVQAGGSLRLSCAASGRIFGPYAMGWYRQAPGKERELVAASSTDYADSVKGRFTISRDNAKNTVYLQMNSLKPEDTAVYYCAKVGFGIPGGFYYWGQGTQVTVSS	low polyreactivity
QVQLVESGGGLVQAGGSLRLSCAASGRIFGPYTMGWYIQAPGKEREFVAAITRRGGTTYYADSVKGRFTISRDNAKNTVYLQMNSLKAEDTGVYYCDAVGQKRSLGYSWGQGTQVTVSS	low polyreactivity
QVQLVESGGGLVQAGGSLRLSCAASGRIFGPYVMGWYIQAPGKERELVAAISTSGTSTYYADSVKGRFTISRDNANNTVYLQMNSLKPEDTAVFYFAKRSGARHRLMDYWGQGTQVTVSS	low polyreactivity
QVQLVESGGGLVQAGGSLRLSCAASGRIFGQNAMGWYRQAPGKERELVAAITWNGGRTYYADSVKGRFTISRDNAKNTVYLQMNSLKPEDTAVYYCNADGKHRLRDYWGQGTQVTVSS	high polyreactivity
QVQLVESGGGLVQAGGSLRLSCAASGRIFGQNVIGWYRQAPGIERELVAAITSAGRTYYADSVKGRFTISRDNAKNPVYLQMNSLKPEDTAVYYCAAQYPINYFTGYGYWGQGTQVTVSS	high polyreactivity
QVQLVESGGGLVQAGGSLRLSCAASGRIFGQYAMGWYRQAPGKERELVAAITYSTGSTSYADSVKGRFTISRDNAKNTVYLQMNSLKPEDTAVYYCAAGGGRWYYPKRGSPYGFYYWGLGTQVTVSS	high polyreactivity
QVQLVESGGGLVQAGGSLRLSCAASGRIFGRNAMGWYRQAPGKERELVAAIRLSGGSTYYADSVKGRFTISRDNAKNTVYLQMNSLKPEDTAVYYCATRPVANGRKYDYWGQGTQVTVSS	high polyreactivity
QVQLVESGGGLVQAGGSLRLSCAASGRIFGRNTMGWYRQAAGKERELVASITFGGVSTYYADSVKGRFTISRDTEKNTVYLQMNSLKPEDTEVYYCAAVLINYEGYDSWGQGTQVTVSS	low polyreactivity
QVQLVESGGGLVQAGGSLRLSCAASGRIFGRYAMGWSRQAPGKERELVASISKRGGSTYYADSVKGRFTISRDNAKNTVYLQMNSLKPEDTAVYYCAALFLSHIYYYWGQGTQVTVSS	high polyreactivity

Sequence	polyreactivity (PSR sort gate)
QVQLVESGGGLVQAGGSLRLSCAASGRIFGRYAMGWYIQAPGKERELVAAISRRGVSTTYADSVKGRFTISRDNAKNTVYLQMNSLKPEDTAVYYCAAVRYGYSSTRDYLGQGTQVTVSS	high polyreactivity
QVQLVESGGGLVQAGGSLRLSCAASGRIFGRYAMGWYRQAPGKERELVAAISVSGGSTYYADSVKGRFTISRDNAKNTVYLQMNSLKPEDTAVYYCATEWRPRYYGTEPFDSWGQGTQVTVSS	high polyreactivity
QVQLVESGGGLVQAGGSLRLSCAASGRIFGRYAMGWYRQAPGKERELVADITYRTGRTYYADSVKGRFTISRDNAKNTVYLQMNSMKPEDTAVYYCAAESTSDPIDFEYWGQGTQVTVSS	low polyreactivity
QVQLVESGGGLVQAGGSLRLSCAASGRIFGRYAMGWYRQAPGKERELVATITSGGSTYYADSVKGRFTISRDNAKNTDYLQMNSLKPEDTAVYFCAAVHRGYFLAFYYWGQGTQVTVSS	high polyreactivity
QVQLVESGGGLVQAGGSLRLSCAASGRIFGRYTMGWYRQAPGKGRELDAAISDSGDSTYADSVKGRFTISRDNAKNSVYFQMNSLKPEDTAVYFCNAQSGSFAGHEYDYWGQGTQLTVSS	low polyreactivity
QVQLVESGGGLVQAGGSLRLSCAASGRIFGRYVMGWYRQAPGKERELVAVISRRSGNTYYADSVKGRFTISRDYAKNTVYLQMNSLKPEDTAVLYCAARYYYSKSDRYDYWGEGTQVTVSS	high polyreactivity
QVQLVESGGGLVQAGGSLRLSCAASGRIFGSYAMGWYRPAPGKERELVAAINRSGGSTRYADSVKGRFTISRDNAKNTVYLQMNSLKPEDTAVYYCAAPSYARYYAYDSWGQGTQVTVSS	high polyreactivity
QVQLVESGGGLVQAGGSLRLSCAASGRIFGSYAMGWYRQAPGKERELVAAISGSGSRTYYADSVKGRFTISRDNAKNTVYLQMNSLKPEDTAVYYCNKYRFRVYPFGYWGQGTQVTVSS	high polyreactivity
QVQLVESGGGLVQAGGSLRLSCAASGRIFGSYAMGWYRQAPGKERELVAAISWRGTSTYYADSVKRRFTISRDNAKKTVYLQMNSLKPEDTAVYYCAARGLWPYDYWGQGTQVTVSS	low polyreactivity
QVQLVESGGGLVQAGGSLRLSCAASGRIFGSYAMGWYRQAPGKERELVAAISWSGGRTYYADSVKGRFTISRDNAKNTVYLQMNSLKPEDTAVYYCNALVFGRYRDMDYWGQGTQVTVSS	high polyreactivity
QVQLVESGGGLVQAGGSLRLSCAASGRIFGSYAMGWYRQAPGKERELVAAITTDDSTNYADSVKGRFTISRDNAKNTVYLQMNSLKPEDTAVYYCNAERWDELFDSWGQGTQVTVSS	low polyreactivity
QVQLVESGGGLVQAGGSLRLSCAASGRIFGSYAMGWYRQAPGKERELVASITSSGGSTYYADSVKGRFTISRDNAKNTVYLQMNSLKPEDTAVYYCAAGCAYLDAFYPYGYWGQGTQVTVSS	low polyreactivity
QVQLVESGGGLVQAGGSLRLSCAASGRIFGSYTMGWYRQAPGKERELVAAISFSGARTRYADSVKGRFTISRDNANNTVYLQMNSLKPEDTAVYYCAARFTGGKYDYWGQGTQVTVSS	high polyreactivity
QVQLVESGGGLVQAGGSLRLSCAASGRIFGTNAMGWYRQAPGKERELVAAISRSGGSTYYADSVKGRFTISRDNAKNTVYLQMNSLKPEDTAVYYCATDGRHTYYYWGQGTQVTVSS	high polyreactivity
QVQLVESGGGLVQAGGSLRLSCAASGRIFGTNAMGWYRQAPRKERELVATITRGGGNTYYADSVKGRFTISRDNAKNTVYLQLNSLKPEDTAVYYCAAYDSVQKYWILGFDYWGQGTQVTVSS	low polyreactivity
QVQLVESGGGLVQAGGSLRLSCAASGRIFGTYAMGWYIQAPGKERELVAGITWRTASTYYADSVKGRFTISRDNAKNTVYLQMNSLKPEDTAVYYCNADAWVWYYYYSYDYWGQGTQVTVSS	low polyreactivity
QVQLVESGGGLVQAGGSLRLSCAASGRIFGTYAMGWYRQAPGKEREFVAAITSSGGNTYYADSVKGRFTISRDNAKNTVYLQMNSLKPEDTGVYYCNARPLYRHYITRFDYWGQGTQVTVSS	high polyreactivity
QVQLVESGGGLVQAGGSLRLSCAASGRIFGTYAMGWYRQAPGKERELVAAITQSGGSTYYADSVKGRFTISRDNAKNTVYLQMNSLKPEDTAVYYCKLVKTTSTLGKRRYDYWGQGTQVTVSS	high polyreactivity
QVQLVESGGGLVQAGGSLRLSCAASGRIFGTYAMGWYRQAPGKERELVAAITRDGSTNYADSVKGRFTISRDNAKNTVYLQMYSLKTEDSAVYYCAAGYLPDPDDYDSWGQGTQVNVSS	low polyreactivity
QVQLVESGGGLVQAGGSLRLSCAASGRIFGVNAMGGYRQAPGKERELVAAIFSGGSTYYADSVKGRFTISRDNAKNTVYLQMNSLKPEDTAVYYCAKLYTVAIVWSAYDYWGQGTQVTVSS	low polyreactivity
